Reference: US20070128187A1 (GENOME THERAPEUTICS, published 2007)

T1: Zmax1/LRP5 ligand binding domain bait LBD1 (Leu969-Pro1376) (human, UniProt O75197 969-1376)
T1 construct: also called pDBleuLBD1; not shown: not described
T1 sequence: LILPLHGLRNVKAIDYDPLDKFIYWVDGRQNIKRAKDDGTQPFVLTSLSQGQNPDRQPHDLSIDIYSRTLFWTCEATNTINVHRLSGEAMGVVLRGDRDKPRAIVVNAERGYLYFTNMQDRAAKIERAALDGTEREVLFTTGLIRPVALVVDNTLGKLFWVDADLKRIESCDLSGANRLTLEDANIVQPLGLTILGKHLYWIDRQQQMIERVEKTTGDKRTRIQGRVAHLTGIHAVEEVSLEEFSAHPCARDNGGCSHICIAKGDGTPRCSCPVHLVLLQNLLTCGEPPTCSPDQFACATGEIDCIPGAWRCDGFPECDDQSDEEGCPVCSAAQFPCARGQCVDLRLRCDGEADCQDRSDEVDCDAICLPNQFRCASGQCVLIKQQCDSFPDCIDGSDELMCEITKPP

T2: Zmax1/LRP5 ligand binding domain bait LBD4 (Arg1070-Pro1376) (human, UniProt O75197 1070-1376)
T2 construct: also called pDBleuLBD4; not shown: not described
T2 sequence: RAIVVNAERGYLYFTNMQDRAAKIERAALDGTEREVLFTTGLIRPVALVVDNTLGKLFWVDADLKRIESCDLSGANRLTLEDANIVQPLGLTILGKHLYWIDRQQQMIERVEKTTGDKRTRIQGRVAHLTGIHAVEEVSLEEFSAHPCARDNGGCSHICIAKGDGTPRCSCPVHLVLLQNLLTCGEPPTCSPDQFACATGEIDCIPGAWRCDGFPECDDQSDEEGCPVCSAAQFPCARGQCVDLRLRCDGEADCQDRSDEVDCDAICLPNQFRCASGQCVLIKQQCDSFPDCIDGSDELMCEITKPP

T3: LRP5LBD-LexA bait (human, UniProt O75197 969-1376, limits assumed)
T3 construct: Neither the limits of the LBD nor the order of the two parts is stated; also called LRP5 LBD fused with LexA; not shown: LexA
T3 sequence: T1 sequence

B1: Dkk-1 clone D4 (F1/R2: Asn34-Cys245) (ligand, not shown: large carriers)
chain: NSVLNSNAIKNLPPPLGGAAGHPGSAVSAAPGILYPGGNKYQTIDNYQPYPCAEDEECGTDEYCASPTRGGDAGVQICLACRKRRKRCMRHAMCCPGNYCKNGICVSSDQNHFRGEIEETITESFGNDHSTLDGYSRRTTLSSKMYHTKGQEGSVCLRSSDCASGLCCARHFWSKICKPVLKEGQVCTKHRRKGSHGLEIFQRCYCGEGLSC
B2: Dkk-1 clone D8 (F2/R2: Cys97-Cys245) (ligand, not shown: large carriers)
chain: CASPTRGGDAGVQICLACRKRRKRCMRHAMCCPGNYCKNGICVSSDQNHFRGEIEETITESFGNDHSTLDGYSRRTTLSSKMYHTKGQEGSVCLRSSDCASGLCCARHFWSKICKPVLKEGQVCTKHRRKGSHGLEIFQRCYCGEGLSC
B3: Dkk-1 clone D3 (F1/R1: Asn34-Lys182) (ligand, not shown: large carriers)
chain: NSVLNSNAIKNLPPPLGGAAGHPGSAVSAAPGILYPGGNKYQTIDNYQPYPCAEDEECGTDEYCASPTRGGDAGVQICLACRKRRKRCMRHAMCCPGNYCKNGICVSSDQNHFRGEIEETITESFGNDHSTLDGYSRRTTLSSKMYHTK
B4: Dkk-1 clone D11 (F3/R2: Val139-Cys245) (ligand, not shown: large carriers)
chain: VSSDQNHFRGEIEETITESFGNDHSTLDGYSRRTTLSSKMYHTKGQEGSVCLRSSDCASGLCCARHFWSKICKPVLKEGQVCTKHRRKGSHGLEIFQRCYCGEGLSC
B5: Dkk-1 clone isolated from the HOB03C5 osteoblast library (Gal4 activation domain fusion prey) (ligand, S. cerevisiae)
chain: ANFNQSGNIADSSLSFTFTNSSNGPNLITTQTNSQALSQPIASSNVHDNFMNNEITASKIDDGNNSKPLSPGWTDQTAYNAFGITTGMFNTTTMDDVYNYLFDDEDTPPNPKKETLNSVLNSNAIKNLPPPLGGAAGHPGSAVSAAPGILYPGGNKYQTIDNYQPYPCAEDEECGTDEYCASPTRGGDAGVQICLACRKRRKRCMRHAMCCPGNYCKNGICVSSDQNHFRGEIEETITESFGNDHSTLDGYSRRTTLSSKMYHTKGQEGSVCLRSSDCASGLCCARHFWSKICKPVLKEGQVCTKHRRKGSHGLEIFQRCYCGEGLSCRIQKDHHQASNSSRLHTCQRH
notes: also called Gal4AD-Dkk prey

Each binder was assayed against T1, Zmax1/LRP5 ligand binding domain bait … (assay: Y2H, growth on selective media).
Excerpt: (§1) These clones were transformed into yeast and mated with each of three yeast strains containing pDBleu (Gibco/BRL), pDBleuLBD1, and pDBleuLBD4. Positive interactions were detected by growth of the hybrids on appropriate selective media.
B1: binds. B2: binds. B3: no binding. B4: no binding.

What follows are binders tested against T2, Zmax1/LRP5 ligand binding domain bait … (assay: Y2H, growth on selective media).
Excerpt: as §1
B1: binds. B2: binds. B3: no binding. B4: no binding.

What follows are binders tested against T3, LRP5LBD-LexA bait (assay: Y2H interaction trap, lacZ reporter under a single LexA operator).
Excerpt: For example, the Interaction Trap methodology can be used as follows.
B5 was tested, and the “fold activation of lacZ reporter over the background” value was over 20 fold.
